Patent publication US11029303B2, “PAH antibodies and uses thereof” (The Administrators of the Tulane Educational Fund, priority 2015, dated 2021)
Entries after “also recorded” stand apart in the source; their conditions may differ.

What was measured:
Assay type in all cases: binding
[1] = Cross-reactivity competitive ELISA, ligand fluoranthene; details: ligand 200 μM to 0.091 μM; read-out: affinity (IC50)
Protocol: (§1) Competitive ELISA was performed similar as described in Example 3, except that an anti-myc antibody (9E10) was added before applying goat-antimouse-HPR secondary antibody to detect myc-tag on scFv construct.
(§2) A real-world field sample is a complex mixture and contains a variety of PAH compounds. An understanding of the abilities of antibody to recognize various PAHs can greatly facilitate the development and application of these antibodies into field studies. In the final assessment, the inventors determined the cross-reactivity of these three scFv clones among 16 structurally related EPA priority PAH species via competitive ELISAs. First, the inventors inhibited the binding of scFv to the immobilized Phen-BSA by high concentrations (50 μM) of PAHs to determine if the scFv can recognize the ligand.

[2] = Cross-reactivity competitive ELISA, ligand indeno-[1,2,3-cd]-pyrene
Protocol: as §1, §2

[3] = Cross-reactivity competitive ELISA, ligand pyrene; details: ligand 200 μM to 0.091 μM; read-out: affinity (IC50)
Protocol: as §1, §2

[4] = Cross-reactivity of scFv clones against EPA 16 PAHs (competitive ELISA); details: for cross-reactivity / inhibition by the 16 EPA PAHs: 50 μM PAH, less than 20% decrease = non-reactive
Protocol: as §1, §2

[5] = Competitive flow cytometry of monoclonal yeast cells; details: soluble Phen versus 2-MePhen
Protocol: For flow cytometry, the yeast library was incubated in growth medium SD-CAA at 30° C. overnight for activation. The next day, activated yeast cells were diluted in induction medium SG/R-CAA at OD600=0.5, and cultured again at 30° C. for 16 hrs. After induction, 10^7 induced yeast cells (OD600=0.5) were washed twice with 0.5 ml wash buffer I (0.5% BSA supplemented with 2 mM EDTA), and once with 0.5 ml wash buffer II (0.5% BSA). Yeast cells were first incubated with 50 μl competitor (phenanthrene or 2-methylphenanthrene, 200 μM in PBS containing 1% DMSO) for 30 min with rotation at 25° C. An additional aliquot (50 μl) of biotinylated protein-conjugate (BSA-biotin, phen-BSA-biotin, or 2mp-BSA-biotin at concentrations between 1 and 100 nM) containing 2 μg/ml anti-myc antibody 9E10 was then added and the cells were incubated for another 30 min. Yeast cells were washed 3 times with wash buffer II and stained with 4 μg/ml goat-antimouse-PE (Life Technologies, Grand Island, N.Y.) and 10 μg/ml streptavidin-Alexa633 (Life Technologies, Grand Island, N.Y.) in the dark room at 4° C. for an hour. The stained yeast cells were washed three times with wash buffer II and resuspended in 1 ml PBS for flow-cytometry analysis. The selected yeast population was sorted into 2 ml pre-warmed YPD medium, and incubated at 30° C. without shaking for 30 min before transferring into 30° C. shaker for two days. The sorted pool was analyzed again by flow cytometry using the same staining procedure. […]
Yeast cells collected after 2nd sort were spread onto agar plates at various dilution level to obtain isolated single colonies. […] A total of 184 individual clones sorted from Pool 1 were picked and analyzed for their binding to Phen-BSA-Biotin in the presence of soluble Phen or 2-MePhen.

[6] = Competitive ELISA with D7 in artificial seawater (ONR7a) and crude oil
Protocol: FIG. 74 is (A) a graph showing a comparison of competitive ELISA for phenanthrene, an abundant PAH in crude oil, in phosphate-buffered saline (ionic strength of serum) and ONR7a, an artificial environmental matrix that mimics seawater. The limit of detection of phenanthrene in this matrix is ˜1 μM. Compared with two buffer PBS and ONR7A (article seawater), the IC50s of two curves were no different than 2 fold.
FIG. 77 is a bar graph showing that the D7 antibody can detect the model PAH, phenanthrene in a background of crude oil (4 and 0.8 mL/L). At both concentrations of crude oil, the presence of 500 μM phenanthrene decreased the absorbance in the immunoassay by 30% (*, p<0.05).
The D7 antibody can detect phenanthrene in the presence of crude oil at concentrations similar to those found in oil spills (0.8-4 mL per liter of seawater). At both concentrations tested (0.8 and 4 mL crude oil/L of synthetic seawater), the D7 antibody was able to detect phenanthrene, as shown by the 30% decrease in absorbance in the competitive ELISA. This will form the basis for an ELISA to determine the measurement and degradation of PAHs in crude oil. (see FIG. 77).

[7] = Competitive ELISA with purified scFv, ligand phenanthrene; details: Phen-BSA coated plate; 5% DMSO
Protocol: (§3) Competitive ELISA was performed in 96 well high binding plates (Corning, Corning, N.Y.). Each well was coated with 2 μg/ml antigen at 4° C. overnight and blocked with 3% BSA. Antibody scFv was incubated in the antigen-coated well with or without soluble competitor, and the binding of scFv was accessed using anti-myc antibody (9E10) and goat-antimouse-HPR antibody (Sigma Aldrich, MO). The HRP signal was detected by adding Sureblue TMB microwell peroxidase substrate (KPL, Gaithersburg, Md.) and the reaction was stopped after 5 minutes using 1 M HCl. The incubation steps were performed at room temperature for an hour. […]
(§4) Competitive ELISA or indirect ELISA was performed in 96-well high binding plates (Corning, Corning, N.Y.). […] The HRP signal was detected by adding Sureblue TMB microwell peroxidase substrate (KPL, Gaithersburg, Md.) and the reaction was stopped after 5 min using 1N HCl. The quantified signals were measured by reading […] values from microplate photometer. […]
(§5) Since A10, D7 and G8 represent three distinct family based on the sequence alignment, the inventors next explored the binding characteristics of these three clones as models to of the antibodies present in the immune library. Purified scFv were prepared and analyzed by competitive ELISA for their abilities to recognize unsubstituted phenanthrene or methylated phenanthrenes, as shown in FIG. 55. […]

[8] = Competitive ELISA with purified scFv, ligand 2-MP; details: Phen-BSA coated plate; 5% DMSO; read-out: affinity (IC50)
Protocol: as §3, §4, §5

[9] = Competitive ELISA with purified scFv, ligand 9-MP; details: Phen-BSA coated plate; 5% DMSO
Protocol: as §3, §4, §5

[10] = Competitive ELISA with purified scFv, ligand 3-MP; details: Phen-BSA coated plate; 5% DMSO
Protocol: as §3, §4, §5

[11] = Competitive ELISA with purified scFv, ligand 4-MP; details: Phen-BSA coated plate
Protocol: as §3, §4, §5

IC50 [1]	IC50 ([2]; ligand 200 μM to 0.091 μM, read-out: affinity (IC50))	IC50 [3]	IC50 [8]	IC50 [10]	IC50 [11]	Molecule	sensitivity for fluoranthene, indeno-[1,2,3-cd]-pyrene and pyrene relative to phenanthrenes [4]	inhibition of binding to Phen-BSA-Biotin by soluble competitors [5]	decrease in absorbance in the immunoassay ([6]; 500 μM phenanthrene, crude oil 4 and 0.8 mL/L)	activity in artificial seawater matrix (ONR7a) ([6]; ONR7a)	recognition of parent phenanthrene [7]	recognition of 9-MP [9]	cross-reactivity / inhibition by the 16 EPA PAHs ([4]; listed as A10)	affinity ([11]; 5% DMSO)	recognition of indeno-[1,2,3-cd]-pyrene [2]	cross-reactivity / inhibition by the 16 EPA PAHs [4]
1500 nM	1500 nM	1500 nM				Clone D7: scFv, amino acid sequence SEQ ID NO: 42; binds unmethylated and methylated phenanthrenes alike (protein) scFv: SAHAEAYLQQSGAELVRPGTSVKVSCKASGYAFTKYLIEWVKQRPGQGLEWIGVINPGSGSTSYNEKFRYKAILTADTSSSTAYMQLSSLTSDDSAVYFCATIPASYRSDSLDCWGQGTTVTVSSGGGGSGGGGSGGGARGGGGSDTTVTQSHKFMSTSVGDRVSITCKASQDVGTAVAWYQQKPGQSPKLLIYWASTRHTGVPDRFTGSGSGTDFTLTISNVQSEDLADYFCQQYSSYPWTFGGGTKLEMKRAS	about 4 fold	unable to distinguish between the 2 soluble competitors	30%	active						
			8280 nM			Clone A10: scFv, amino acid sequence SEQ ID NO: 37; binds methylated phenanthrenes, prefers 2-methylphenanthrene (protein) scFv: SAHAEAYLQQSGAELVKPGASVKLSCKASGYTFTSYWMHWVKQRPGQGLEWIGEINPRNGRSNYNEKFKNKATVTVDKYSNTAYMQLSSLTSDDSAVYYCTRDGGDYWGQGTTVTVSSGGGGSGGGGSGGGARGGGGSDIVLTQSHKFMSTSVGDRVSITCKASQDVGTAVAWYQQKPGQSPKLLIYWASTRHTGVPDRFTGSGSGTDFTLTISNVQSEDLADYFCQQYSSYPLTFGGGTKLEMKRAS		some tendency for the 2-MePhen over unsubstituted Phen			did not recognized	did not recognized	None of the 16 PAHs showed significant inhibition; also recorded: no cross-reactivity to other PAHs			
				14400 nM	940 nM	Clone G8: scFv, amino acid sequence SEQ ID NO: 45; binds 4-methylphenanthrene most tightly (protein) scFv: SAHAEAYLQQSGAELVRPGTSVKVSCKASGYVFTNFLIEWVKQRPGQGLEWIGVINPGNGGAAYNEKFKGKAILTADKSSSTAYMQLSSLTSDDSAVYFCARLPPSYDYDGDIDYWGQGTTVTVSSGGGGSGGGGSGGGARGGGGSDLVLTQSPASLAVALGQRATISCRASKSVTTSGYSLMHWYRQKPGQPPKLLIYPASNLESGVPARFSGSGSGTDFTLNIHPVEEEDAATYYCQHSRELPWTFGGGTKLEIKRAS		unable to distinguish between the 2 soluble competitors						sub-micromolar	did not recognize	some cross-reactivity to other PAHs
